Test results reported in US6335019B1, “Methods for treating sensitivity to protein allergen using peptides which include a T cell epitope recognized by a T cell receptor specific for the protein allergen” (Immulogic Pharmaceutical Corp., priority 1989, dated 2002).

Tested on: rabbit anti-Amb a I polyclonal antibody
Assay: Western blot with rabbit anti-Amb a I polyclonal antibody (FIG. 17)
Assay type: binding
Excerpt: As is also represented in FIG. 1A, rabbit polyclonal antibodies were produced using the King Antigen E preparation. […] These antibodies were also shown, using a similar technique, to bind to the affinity purified Amb a I described previously (FIG. 17).
It is clear from the antibody reactivity that the 4B5/B7 affinity purified Amb a I has a recognition pattern similar to that of the Amb a I of pollen and skin test reagent with both rabbit polyclonal anti-Amb a I and JB1E3-4 anti-Amb a I monoclonal antibody (FIG. 17).
Affinity purified Amb a I was electrophoresed, Western transferred (Towbin et al., Proc. Natl. Acad. Sci. USA, 76:4350 (1979)) and probed with a variety of antibodies, including IgE from an allergic patient (FIG. 17). In pollen extract Amb a I is not only present as an intact 38-KD species, but also characterized by its component 26KD alpha chains and 12-KD beta chains which are formed by enzymatic cleavage. The intact 38-KD species and the alpha chain are clearly detected using rabbit anti-Amb a I, polyclonal affinity purified anti-RAE 16 and monoclonal anti-Amb a I JBIE3-4 (FIG. 17); RAE 16 peptide has the sequence RTDKDLLENGAIC derived from amino-acids 343-353 of Amb a IB, FIG. 16). […]

B1: affinity purified Amb a I: protein affinity purified from pollen extract with monoclonal antibody 4B5/B7 (protein)
chain: AEDLQEILPVNETRRLTTSGAYNIIDGCWRGKADWAENRKALADCAQGFGKGTVGGKDGDIYTVTSELDDDVANPKEGTLRFGAAQNRPLWIIFERDMVIRLDKEMVVNSDKTIDGRGAKVEIINAGFTLNGVKNVIIHNINMHDVKVNPGGLIKSNDGPAAPRAGSDGDAISISGSSQIWIDHCSLSKSVDGLVDAKLGTTRLTVSNSLFTQHQFVLLFGAGDENIEDRGMLATVAFNTFTDNVDQRMPRCRHGFFQVVNNNYDKWGSYAIGGSASPTILSQGNRFCAPDERSKKNVLGRHGEAAAESMKWNWRTNKDVLENGAIFVASGVDPVLTPEQSAGMIPAEPGESALSLTSSAGVLSCQPGAPC
Binding by rabbit anti-Amb a I polyclonal antibodies (in words): bind
